Laboratory results reported in patent US6429298.

System: Modified p53 (human p53 engineered to contain the HIV-1 protease cleavage site VSFNFPQITL upstream o)

Substance: HIV-1 protease
- SDS-PAGE migration of purified p53 fusion protein after co-expression with HIV-1 protease (cleavage): The mutagenized p53 migrated more quickly than the wild-type protein (as did p53Δ30), but only after coexpression with HIV-1 protease.
